Source: the DeepSol protein solubility set

Assay: soluble on expression in E. coli; label from the status in PepcDB or PDB records

Sequence | soluble on expression in E. coli
MGGAERVMATLANEFVKRGHQVRLVTLKKAVSAYELDKRVEFIGGGADINSGNFLIKRIQMISAVIKGTLFYRRQLREYKPDIILSFLTYTNLLSVINNRISRVKYPVVVSERCDPRKRSKLLIKLCNIVYPLADCIVCQSKVIQDYFLNKNPKSVTKVIPNPVNEECINKEEIIKRRKLIVAVGRLSNQKNYDLLIDAFSDIANEYSEYRLEIYGEGPERERLQKKINRLGLNDRIQLMGTKTNVMKHIADAQLFVMSSNFEGFPNALAEAMASGLPVISTNFPSGVAKELIIDGENGYVVDINNREQMADAMRKILGDPLTITKMSKNNVLLREKLNVKTVANMWENLFNDILEKRTKNEKN | not soluble
GHMPPWTARQDSTTGLYAPVTPAGRVLLDRLAAHLPRIRSTAAEHDRDGTFPTDTFDALRKDGLMGATVPAELGGLGVDRLYDVAVALLAVARADASTALALHMQLSRGLTLGYEWRHGDERARTLAERILRGMVAGDAVVCSGIKDHHTAVTTLRPDGAGGWLLSGRKTLVSMAPVGTHFVINARTDGTDGPPRLASPVVTRDTPGFTVLDNWDGLGMRASGTVDIVFDDCPIPADHVLMRDPVGARNDAVLAGQTVSSVSVLGVYVGVAQAAYDTAVAALERRPEPPQAAALTLVAEIDSRLYALRATAGSALTAADALSADLSGDMDERGRQMMRHFQCAKLAVNRLAPEIVSDCLSLVGGASYTAGHPLARLLRDVQAGRFMQPYAYVDAVDFLSAQALGIERDNNYMSTWAKRSGGNGKSADAAGPRRPTPTSR | soluble
SMNSNMGSDSGTMGSDSDEENVAARASPEPELQLRPYQMEVAQPALEGKNIIICLPTGSGKTRVAVYIAKDHLDKKKKASEPGKVIVLVNKVLLVEQLFRKEFQPFLKKWYRVIGLSGDTQLKISFPEVVKSCDIIISTAQILENSLLNLENGEDAGVQLSDFSLIIIDECHHTNKEAVYNNIMRHYLMQKLKNNRLKKENKPVIPLPQILGLTAS | soluble
MVAQNPTSISSGGRKQPQKQDKVQKKQLKKIYVVKIKRIPFGFFEKELLGYFRQFGNVLRIRVARNRRTGNHKGWAYVGFDNKAVAEIAAESMNGYLMFEQRLGCTVMKPELIPKAMRHGPLLVMRPSYLGIAKKDTIARNNTTGKNDVINAKKRVQNLNKTLKKLQNMGINYDFSVSGTPRTPLKKVIDNEVQFISDVTPKSTTPKIVKAATPKAATPKAVTPKQATPKVSTPVTKKVVIKTPKTEKPEPKQFTPKTRAGKKAAAAATPQAKSTLSNTILKSVAASARPAAVEKKTLRSRGKKKSL | soluble
MLKLGHCGVEKQEVQKRIGLRVIELREHKGWSQSDLARACNKDRQAIEKIESGKVNPTIFSLYEIAIALGVSLSKVTGI | not soluble
MASIKLYFDKRVNRKDGKFPLKINVTHKRQQALINLGVLLSPDQWDSTKGKVINGPNKSFLNGYISQRVHCAETELLNLRIAGKLDLMTGKQFKEHLQRILLRGKLEEKQEETGCSFVQYYTRFVEGKKNPQTKAVYQYTLDRICRFVDVPDKFRFEDVTYAWLKSFEIHLSETSKVNSISIHMRNIRAVFNDALNTETISCYPFRRFKIKQEATAKRALTPEELVTLRDYPCEEHQKQYVDIFMLIFYLVGINTVDLCRLEKIRNGRIEYRRAKTKKIYNIKVEPEAAEIIERYKGSKYLLNILERYKNYKDYAHRLNENLQEIGSVELVEKVINGKRRRVKKRFPLFPELTVYWARHTWATIAHKIGVSKDVISLALGHEFGCKTTSIYIDYDMEKVDKANRQVLDYLENLK | not soluble
MTEITGGTLVLVGADHPVAHLDVTAFEASVTHDVMAASVAGTGLGVSTATAAGLSHLVVDAGVAQPVQGARSVRIRGERGDLRHADAMTPVQVEALLRDGQALGAEASHDGLVCLGEVGVGNTTIATALACAMTGLGPDEAVGLGAGSDTAMVERKAEIIKAALTRTHTDPNDPERLLAALGGPEFAVLAGVCLGAAEAGSPVVLDGLATSVAALIATKFSPGLHGWLVASQASREQVHHIVLAELGLEALMELRMRAGEGVGACFGAQMILTGLQVRRTAARTCLEHHHHHH | not soluble
MGSDKIHHHHHHMYSHPTAIQTMSDGTIKQVNPFSGTEVWTVPGRGHRPLSTSQGNITPITPSDHSNTCAFCSDRYLDTPPEKARIVRDDDGWTILRGVLPDRLHDSVPAFRRVSNLFEIVSYDYWRNNYGFSMDLETTDWMQSYISTEKGREHVLATVRTKLQAAGIQDMPDDATLLPQGEAFFGGGHDLIIGQRHFVPDATQSDQLASAGTLSPDEHFAFIFFTVDALREAYQRNRYAPYVAVFQNWLKPAGASFDHLHKQLVAIDERGVHGETEIAKLRNYPNMYNEWAVDYAGQRNLIIAENDHAVCFAGFGHRYPTLEVFSRSATPEPWLQTNEEIKAMSDLIHACHAAAGPHVPCNEEWHHKPIDLDIAMPWRVMIKWRVSTLAGFEGSTKVYLNTLSPWDVRDRVVPRLYELRDSGAIDGSIRIATECSVRRNSLLYNKNLNM | not soluble
MKDPDRWMDVKEFLPLLAQKEWYTKTRFGYARGHEPVVYVQNIRRYYDVLVRITEPDAPSASGLEDQLAWLEHHHHHH | not soluble
MSLGKTSMIHAIVDQYSHCEWVENSMSANENNLIWIDLEMTGLDPERDRIIEIATLVTDANLNILAEGPTIAVHQSDEQLALMDDWNVRTHTASGLVERVKASTMGDREAELATLEFLKQWVPAGKSPICGNSIGQDRRFLFKYMPELEAYFHYRYLDVSTLKELARRWKPEILDGFTKQGTHQAMDDIRESVAELAYYREHFIKLEGGSHHHHHH | soluble
MDIAKWVEHARTCYSTQLDTKIKVIGVIGKDYPDHGKGDNINCYLRENVFPVAATEDETCTIRGHFSEDDQILFLVMNGVDDVANIRKCLKSNPKSNYFDAMAESECQQIRMLHFLFISCHFIIIFEQTSRIDLELMRFLKKVNSARIQLRKKINQRLVASDLRDVSFNNRILSSAESEGRMVVPRLLIAFQRNNIRPDVNPGKKRELYEKLEKNLDNQFSDILKLYDLIDCGASSLCQLNETIPVVHLLNPKIVKRDIIGEMFEILMADAENTKISGNAGTLPSNNSFVKFLEDNFRSEKNEISLENVIELMNCLQCVLDGDLEEKHEKTAIQTFIKRIQNDHMEEARRLYTNAQRPGERRGADRFKDSEKPVKIRSKEEHLMRVEKPKKFCIFISFQNVLQFNEATHYIDSVVGVNSREALSQLQAQCNEMWQSDMRACESVSMMGRSCVRKIHPTFGDQTAPEHRWTAHDASNTMISTCVCGRKQLIRPEPFSVKEANSDFYDHPDFKCCRRLWRYQFQLYQEDSEEKDDIMWADRESNSLRAAKKMAQREDELAEEDTDLDIPESLLDPDSTSPSDEDDVRVRTMSSSESSSQESDAYLRPTSRRDESMASKTERELTIDHVKRMQKLELAGKSEDFLITVPNSMTTGKLPIFPSWHLTSLGDSSIYSHGAGLKNQPNFKIGGDYLSPVVVLLDVNFDVWNRDLNKIRSEDFSRKCGKDNKDDSARVKLFVGFEYECSRGHRFFVDYNGEPLIYSKGSNVIRESAHRSSLGNVLQADLPIRRPCTCRKLPLQSAQLQKVHVVTPKAPVHITIDPKVLIPTHEGVYGTGQEPLELHHSKYYILHLPTVYSGPSGAWMPGEFNPEKQGVWMGGALKVAYKPVMSFKW | not soluble
MVNYENVIVTEITETLTFFAQSVESGSKLESLMSKLHADFQSNPPIAGSYTPKRGDLVAAQFTLDNQWYRAKVERVQGSNATVLYIDYGNKETLPTNRLAALPPAFSSEKPYATEYALALVALPTDNEDKEEALRAFSEDVLNHKVQLNVELKVTGSPNLATLRDPTTKVDFGKQLVAEGLVLAEQRGERKLKELVDQYKAAQEAARVAHLAIWKYGD | soluble
MGSDKIHHHHHHMTTYRTVSIDGLDIFYREAGSRNNPTILLLHGFPTSSHMFRNLIPALADKFHLVAPDYPGYGNSSMPTVNEFDYTFDNLAEIVEKFIAAIALKKYSLYVMDYGAPIGYRIAAKYPERVQSLIVQNGNAYEEGLREFWEPIKAYWQERSPENAEKLKYLVTLEATKWQYTNGVRNLEAISPDTWTMDQHFLDRPGNDEIQLALLYSYGTNPLLYPQWQEYFRNYQPPTLIVWGKNDYIFPADGAYPYQRDLKDVEFHLLDTGHFALEEDGDAIANYIDQFLTSRLQSIPV | not soluble
MGSDKIHHHHHHEILKVLRKNNDFQNWEEIKNRLHPIIIKHVEGEPVYQFFDTLNDNSFEKNGQLISLSTQPINSFVPYHIHNYVEMMVVLSGSCVIKTANEAITLNENEIIIIGCKTIHKVEPIDDKTIMIKIALKRAAFSLEDLVFLTHSHNAQSVSSIVFSLLSSDDSHGAFNVFRTHHDVHVVNKIYNIISEYYCPDDYSNQIIKLEILELFIRLIRIASKDAVFQTQKEVQNNNEIDLLTLLLYIERNYKTINLKSMAKYFNFNPNYLSSILREKTGYTFIKLVHLQRINVAAEYLALTNTPVEGISLAVGYENPSYFYKMFKKYMGCSPKEYRQKQIAG | not soluble
MEALVVVHKVASEGGRRPKTTVSDESGSHSREKGKSFQVKDSPENNYATGKVDSLERSHFSSSYNQERRQSEEQRR | soluble
MEEKKDFYDTDELRDFMALVEKTNDIKKIALFRILAFTGIRKGELLALEWKDYRKSTLDINKAISHSPVGYEILPPKANSNRLLSLDEKTCKILDELHQTYPESTRIFESENGGMLSPSKPRKWLLEITKEKEIEPIRIHAFRHTHASLLFESGMSLKQVQYRLGHADLKTTMNIYTHITKLEHHHHHH | soluble
MSLQTIKIGLPVPLSGPYGAEAQDQVRNAELAVKQFNDAGGLDGRKAQLLVRDDRLNPAEAATRALELIEKDGVNFIVGGLSAATQLSINNVTRQRKKLYISISQSDAINEAADASPYTFHEALNPHMTTQAVGKYVFKPGMRVAFLTADYAYGHEMTRGFTEVARQQGAEVVGEVKHPLGASDYSAFLPRLKALNPDVLVFNNFGADNRISIKQAADFGMKRNIRFVTPILTYTARVSGGAATYQDVVGGTQYYWAIQDSVPSAKAFNAAFQAENNGRFPSDYGAMAYSAVKSLLLAVRDAGSTDTDEVAAALRKLKYDTYKGAQYYRGCDQQSVQSVLVIQSVGKDNAHPDEVFKLLHTEAPSEGHHHHHH | soluble
MGSDKIHHHHHHMIVRHKLLADLVRLWKNDQLVEKIDRLPIELSPRKSKPLGRCCVHKERAVWRYKTFPLMGLDMTDEHDEVTPLSEYARMALNRPEPSKENIMCVIDEACSSCVQINYEITNLCRGCVARSCYMNCPKDAIRFKKNGQAMIDHDTCVSCGICHKSCPYHAIVYIPVPCEESCPVKAISKDEHGVEHIDESKCIYCGKCMNACPFGAIFEISQTFDVLQHIKKGEKLVAIIAPSILGQFKTSIEQVYGAFKEIGFTDIIEVAEGAMMTTSNEAHELLEKLEEGQKFMTTSCCPSYIELVEKHMTEMKPYVSTTGSPMYYAARIAKEKHPDAKIVFVGPCVAKRKEVRRDDAVDYILTFEEVGSILDGMDIQLEQVNSFSILHTSVREAHGFAQAGGVMGAVKAYLKEEADKINAIQVSDINKKNIALLRACAKTGKAAGQFIEVMACEGGCITGPSTHNDIVSGRRQLAQELLKRKESYETMDR | not soluble
MSLKRLNCRRKGIRVRILAIDTSNQTLSIAVCENQKILGSYTATVKRNHSLTLMPAIDYLMSQLNLAPTAIDRFVVAEGPGSYTGLRLGVTTAKTLAYTLKKELVGISSLQTLAANCVGQTGLIVPLFDARRKNVYAGAYRFVNGVWQNELPDQHISLRELLEQLKNEPNLFFVGEDVEKFTEEIAQIIPHGEICDVPQWQIPNAAVLAALGSVAEPVENVHGFLPAYLKKVEAEENWLKTHTPNGESYVEKLEGHHHHHH | soluble
MDMTDQAFFKYVRNFNEYQKRSMFGGIGLFSDDAMFALVSNDCCYLRGGNGLDEEFTLLNCEKYKHVKKQTTATVNYYDVTDLFESGFTGLDDLLRKSIDCSIKERKYQKSSASKRLRDLPNMQLTLERMVKKAGIDDVETFLELGPVEVFNKVRVAYGNDVDVKLLWKFAGAIDGVHWKLIQEPRKKQLLALCE | not soluble
